Measurements: paper PMC11272584 (Nature Metabolism, 2024)
Numbering of substitutions follows the chain as printed.

Legend:
GIPR R336P (human) = target: T1, GIPR R336P (human) (UniProt P48546)
T1 sequence: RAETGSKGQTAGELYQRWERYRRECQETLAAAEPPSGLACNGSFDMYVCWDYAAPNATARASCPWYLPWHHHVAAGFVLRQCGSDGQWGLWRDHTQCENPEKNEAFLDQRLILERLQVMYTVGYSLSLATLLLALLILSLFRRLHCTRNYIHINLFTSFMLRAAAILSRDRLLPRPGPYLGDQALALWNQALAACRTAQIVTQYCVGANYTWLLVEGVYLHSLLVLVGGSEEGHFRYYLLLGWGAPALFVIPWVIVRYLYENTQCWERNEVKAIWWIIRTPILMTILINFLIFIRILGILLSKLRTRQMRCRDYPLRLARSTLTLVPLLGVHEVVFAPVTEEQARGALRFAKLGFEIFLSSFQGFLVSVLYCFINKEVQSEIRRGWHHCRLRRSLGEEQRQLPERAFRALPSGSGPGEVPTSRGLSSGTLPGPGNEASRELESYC

GIPR E461* (human) = target: T2, GIPR E461* (human) (UniProt P48546)
T2 sequence: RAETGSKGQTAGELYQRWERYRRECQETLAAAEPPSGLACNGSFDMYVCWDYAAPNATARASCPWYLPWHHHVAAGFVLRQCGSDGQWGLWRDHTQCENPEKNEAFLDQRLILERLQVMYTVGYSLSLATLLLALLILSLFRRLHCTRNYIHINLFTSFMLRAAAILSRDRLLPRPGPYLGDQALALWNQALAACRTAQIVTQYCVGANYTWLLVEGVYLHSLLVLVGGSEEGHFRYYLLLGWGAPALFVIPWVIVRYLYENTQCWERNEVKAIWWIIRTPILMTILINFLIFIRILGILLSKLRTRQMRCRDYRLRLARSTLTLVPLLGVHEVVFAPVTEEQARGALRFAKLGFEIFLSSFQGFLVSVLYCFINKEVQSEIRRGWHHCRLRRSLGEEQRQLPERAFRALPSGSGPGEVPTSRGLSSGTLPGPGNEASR

GIPR E288G (human) = target: T3, GIPR E288G (human) (UniProt P48546)
T3 sequence: T1 sequence with E267G, P315R

GIPR E418K (human) = target: T4, GIPR E418K (human) (UniProt P48546)
T4 sequence: T1 sequence with P315R, E397K

GIPR M67R (human) = target: T5, GIPR M67R (human) (UniProt P48546)
T5 sequence: T1 sequence with M46R, P315R

GIPR W90Lfs* (human) = target: T6, GIPR W90Lfs* (human) (UniProt P48546)
T6 sequence (P48546 whole entry, looked up): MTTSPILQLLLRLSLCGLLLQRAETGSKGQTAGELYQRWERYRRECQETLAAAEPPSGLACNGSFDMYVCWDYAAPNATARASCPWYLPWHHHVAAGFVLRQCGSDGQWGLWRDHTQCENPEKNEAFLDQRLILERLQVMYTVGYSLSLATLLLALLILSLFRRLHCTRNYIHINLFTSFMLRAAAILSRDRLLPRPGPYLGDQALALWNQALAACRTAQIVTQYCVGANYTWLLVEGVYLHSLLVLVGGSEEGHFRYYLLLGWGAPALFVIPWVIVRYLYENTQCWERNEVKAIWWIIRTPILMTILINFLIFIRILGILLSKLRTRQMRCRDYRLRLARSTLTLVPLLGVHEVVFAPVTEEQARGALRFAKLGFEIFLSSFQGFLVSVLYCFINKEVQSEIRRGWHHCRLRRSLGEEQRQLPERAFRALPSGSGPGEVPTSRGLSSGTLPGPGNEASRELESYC

- β-arrestin 2 recruitment (BRET) on stimulation with GIP(1-42): logEC50 (Arrestin) (log M (inferred)) (GIPR R336P (human)): -8.82
- β-arrestin 2 recruitment (BRET) on stimulation with GIP(1-42): logEC50 (Arrestin) (log M (inferred)) (GIPR E461* (human)): -9.17
- β-arrestin 2 recruitment (BRET) on stimulation with GIP(1-42): logEC50 (Arrestin) (log M (inferred)) (GIPR E288G (human)): -9.15
- β-arrestin 2 recruitment (BRET) on stimulation with GIP(1-42): logEC50 (Arrestin) (log M (inferred)) (GIPR E418K (human)): -9.19
- β-arrestin 2 recruitment (BRET) on stimulation with GIP(1-42): logEC50 (Arrestin) (log M (inferred)) (GIPR M67R (human)): -8.16
- β-arrestin 2 recruitment (BRET) on stimulation with GIP(1-42): logEC50 (Arrestin) (log M (inferred)) (GIPR W90Lfs* (human)): -10.8
Substance: β-arrestin 2 (Rluc8-Arrestin-3-Sp1) (from UniProt P32121 1-409) (natural protein)
